# Experimental data published in article PMC4127255.
# Legend:
# [1] = molecular target: acetylcholine-binding protein from Aplysia californica (Ac-AChBP) (Aplysia californica); assay: non-reduced SDS-PAGE
# [2] = molecular target: acetylcholine-binding protein from Aplysia californica (Ac-AChBP) (Aplysia californica); assay: SEC; […]; 50 mM NaCl, 50 mM Tris pH 8.0, 0.5 mL/min, […]
substance,measurement,setting,value
acetylcholine-binding protein from Aplysia californica (Ac-AChBP) (natural protein),stoichiometry N,[1],5
same,stoichiometry N,[2],5
